Consider two molecules from publication PMC2723993, “Crystal Structure of Escherichia coli Polynucleotide Phosphorylase Core Bound to RNase E, RNA and Manganese: Implications for Catalytic Mechanism and RNA Degradosome Assembly” (Journal of Molecular Biology, 2009).

The labels stand for the following.
B1: Escherichia coli polynucleotide phosphorylase core (PNPase ΔKHΔS1, lacking the C-terminal S1 and KH domains) (domain or fragment, E. coli)
chain: MLNPIVRKFQYGQHTVTLETGMMARQATAAVMVSMDDTAVFVTVVGQKKAKPGQDFFPLTVNYQERTYAAGRIPGSFFRREGRPSEGETLIARLIDRPIRPLFPEGFVNEVQVIATVVSVNPQVNPDIVAMIGASAALSLSGIPFNGPIGAARVGYINDQYVLNPTQDELKESKLDLVVAGTEAAVLMVESEAQLLSEDQMLGAVVFGHEQQQVVIQNINELVKEAGKPRWDWQPEPVNEALNARVAALAEARLSDAYRITDKQERYAQVDVIKSETIATLLAEDETLDENELGEILHAIEKNVVRSRVLAGEPRIDGREKDMIRGLDVRTGVLPRTHGSALFTRGETQALVTATLGTARDAQVLDELMGERTDTFLFHYNFPPYSVGETGMVGSPKRREIGHGRLAKRGVLAVMPDMDKFPYTVRVVSEITESNGSSSMASVCGASLALMDAGVPIKAAVAGIAMGLVKEGDNYVVLSDILGDEDHLGDMDFKVAGSRDGISALQMDIKIEGITKEIMQVALNQAKGARLHILGVMEQAINAPRGDIS
notes: Expression vector from George Mackie; No tag is mentioned; also called PNPase core; PNPase ΔKΔH1; source: E. coli BL21 (DE3), auto-induction, purified (ammonium sulphate, Q-Sepharose, mono-Q)
B2: RNase E recognition micro-domain (residues 1021-1061) (peptide, UniProt P21513 1021-1061, looked up)
peptide: EAPRHSDWQRPTFAFEGKGAAGGHTATHHASAAPARPQPVE
notes: also called RNase E micro-domain; source: synthetic peptide (Clonestar Biotech Ltd), desalted on PD10

Data set [1] has as its target B2. The data set is described as follows: ITC; MicroCal VP-ITC, 25 °C; 200 uM PNPase core injected into 10 uM RNase E micro-domain in the cell; 10 mM Tris pH 7.5, 150 mM NaCl, 1 mM MgCl2; single binding-site model. The conditions noted are these: both partners purified. Background: ITC needs no label: the signal is the heat of the interaction.
Data set [2] deals with the molecule itself. The data set is described as follows: crystal structure; co-crystals of 165 uM PNPase core mixed with 246 uM RNase E micro-domain (1021-1061), with or without O2'-methyl RNA, Mn2+ or tungstate; four crystal forms; hanging drop, 20 °C.
Data set [3] has as its target B1. The data set is described as follows: ITC; MicroCal VP-ITC, 25 °C; 200 uM PNPase core injected into 10 uM RNase E micro-domain in the cell; 10 mM Tris pH 7.5, 150 mM NaCl, 1 mM MgCl2; single binding-site model. As to conditions: both partners purified.

Turning to B1, in data set [1], the dH was -21.5 ± 0.52 kcal/mol and the “stoichiometry N” value was found to be 1.02 ± 0.02. In data set [2], the “stoichiometry N” value was 3.
In data set [3], B2 registered a Ka of 956000 M⁻¹ and a Kd of approximately 900 nM.

The term stoichiometry N denotes a count of units in the complex or per binding partner. Usually Kd stands for a measure of binding affinity in units of concentration. A low value points to tighter binding.
